Blank lines part the entries; values can stand above or below the binder they belong to.
Legend:
[1] = target: PLK1 PBD protein (residues 367-603) (human), P53350; test: competitive FP, displacement of fluorescein tracer SEQ ID NO: 7 from PLK1 PBD (367-603)
[2] = target: PLK1 (endogenous, in HeLa / HeLa-H2B-GFP cells) (human), P53350; test: cell-based or functional assay
[3] = target: PLK1 PBD protein (residues 367-603) (human), P53350; test: competitive FP

Chain of PLK1 PBD protein (residues 367-603) (human), P53350 (P53350 367-603 limits assumed): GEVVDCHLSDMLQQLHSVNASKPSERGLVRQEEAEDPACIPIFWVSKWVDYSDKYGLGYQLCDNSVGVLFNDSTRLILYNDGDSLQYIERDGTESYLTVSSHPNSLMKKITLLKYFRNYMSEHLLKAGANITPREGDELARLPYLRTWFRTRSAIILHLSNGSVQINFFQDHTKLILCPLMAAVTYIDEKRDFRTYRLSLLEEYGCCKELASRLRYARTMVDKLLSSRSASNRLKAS
Chain of PLK1 (endogenous, in HeLa / HeLa-H2B-GFP cells) (human), P53350 (P53350 2-603): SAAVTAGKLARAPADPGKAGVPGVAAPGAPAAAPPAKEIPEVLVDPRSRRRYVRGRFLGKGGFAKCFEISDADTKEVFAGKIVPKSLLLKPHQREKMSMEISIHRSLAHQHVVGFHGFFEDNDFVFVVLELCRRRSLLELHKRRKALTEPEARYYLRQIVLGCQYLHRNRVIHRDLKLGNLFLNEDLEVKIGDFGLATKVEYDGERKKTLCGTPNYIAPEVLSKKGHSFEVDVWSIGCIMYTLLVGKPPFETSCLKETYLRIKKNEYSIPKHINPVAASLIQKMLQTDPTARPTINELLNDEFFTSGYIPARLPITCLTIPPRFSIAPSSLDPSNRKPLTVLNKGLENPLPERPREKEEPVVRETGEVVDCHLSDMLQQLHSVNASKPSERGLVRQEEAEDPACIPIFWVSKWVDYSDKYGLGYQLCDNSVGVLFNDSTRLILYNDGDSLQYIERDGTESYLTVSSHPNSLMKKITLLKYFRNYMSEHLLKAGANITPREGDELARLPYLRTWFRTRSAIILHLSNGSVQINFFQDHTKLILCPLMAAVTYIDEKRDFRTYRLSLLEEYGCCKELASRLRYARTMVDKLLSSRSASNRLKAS

Binder: LLCSEPNGL (modifications not checked) [… (sample no. 345)]
IC50 [1]: 350 µM
fold less potent (than the phosphothreonine sequence) [3]: 1000 fold

Binder: PLHSEA (modifications not checked) [Ac-PLHSEA (sample no. 5744)]
IC50 [1]: 500 µM

Binder: PLHSTA (modifications not checked) [Ac-PLHS[pT]A (sample no. 5743)]
Aberrant mitoses @ 24 hr, 30 mM [2]: 40.3%
Apoptosis @24 hr [2]: 34%
cells with mitotic abnormalities (10 µM) [2]: 32%
relative fluorescence intensity of PLK1 staining at centrosomes (30 µM, HeLa-H2B-GFP) (arbitrary fluorescence units) [2]: 33

Binder: STPNGL (modifications not checked) [3G2-S[pT]PNGL (4-butylbenzoic acid) (Sample No. 5827)]
Aberrant mitoses @ 24 hr [2]: 53.8%
Apoptosis @24 hr [2]: 55.5%
proportion of viable cells after 24 hours, 30 µM (Annexin V/PI) [2]: 45%

Binder: LHSTAI (modifications not checked) [Ac-LHS[pT]AI (sample no. 5781)]
aberrant metaphase (30 µM) [2]: 23%
decrease of the percentage of viable cells, 24 hours, 30 µM (Annexin V/PI) [2]: 30%
relative fluorescence intensity of PLK1 staining at centrosomes (30 µM, HeLa-H2B-GFP) (arbitrary fluorescence units) [2]: 35

Binder: STPNGL (modifications not checked) [Sample No. 5826, fragment ligated inhibitor (4-propylbenzoic acid)]
IC50 [1]: 10.8 µM

Binder: STPNGL (modifications not checked) [Sample No. 5604, fragment ligated inhibitor]
IC50 [1]: 300 µM

Binder: LLAAAPNGL (modifications not checked) [… (sample no. 5783)]
aberrant prometaphase/metaphase features (30 µM) [2]: 9.5%

Binder: STPNGL (modifications not checked) [3G1-S[pT]PNGL (4-ethylbenzoic acid) (Sample No. 5788)]
Aberrant mitoses @ 24 hr [2]: 47.9%
Apoptosis @24 hr, 30 mM [2]: 36.2%
proportion of viable cells after 24 hours, 30 µM (Annexin V/PI) [2]: 64%
relative fluorescence intensity of PLK1 staining at centrosomes (10 µM, HeLa-H2B-GFP) (arbitrary fluorescence units) [2]: 32

Binder: LLCSTPNGL (modifications not checked) [Ac-LLCS[pT]PNGL (sample no. 5821)]
fraction of viable cells after 24 hours, 30 µM (Annexin V/PI) [2]: 57%

Binder: STPNGL (modifications not checked) [Sample No. 5786, fragment ligated inhibitor (4-ethoxybenzoic acid)]
IC50 [1]: 64.7 µM

The remaining lines, values ahead:

IC50 [1]: 104 µM
Binder: STPNGL (modifications not checked) [Sample No. 5753, fragment ligated inhibitor]

aberrant prometaphase/metaphase features (30 µM) [2]: 25%
relative fluorescence intensity of PLK1 staining at centrosomes (HeLa-H2B-GFP) (arbitrary fluorescence units) [2]: 45
Binder: LLCSTPNGL (modifications not checked) [LLCS[pT]PNGL, native phospho-CDC25c PBD binding sequence (sample no. 292)]

IC50 [1]: 550 µM
Binder: STPNGL (modifications not checked) [Sample No. 5600, fragment ligated inhibitor]

IC50 [1]: 375 µM
Binder: STPNGL (modifications not checked) [Sample No. 5591, fragment ligated inhibitor]

IC50 [1]: 31.2 µM
Binder: STPNGL (modifications not checked) [Sample No. 5792, fragment ligated inhibitor (4-(Methylamino) benzoic acid)]

IC50 [1]: 380 µM
Binder: STPNGL (modifications not checked) [Sample No. 5593, fragment ligated inhibitor]

IC50 [1]: 125 µM
Binder: STPNGL (modifications not checked) [Sample No. 5754, fragment ligated inhibitor (4-methoxybenzoic acid)]

IC50 [1]: 600 µM
Binder: STPNGL (modifications not checked) [Sample No. 5599, fragment ligated inhibitor]

IC50 [1]: 18.5 µM
Binder: STPNGL (modifications not checked) [Sample No. 5791, fragment ligated inhibitor (4-(Methylthio) benzoic acid)]

IC50 [1]: 16.5 µM
Binder: STPNGL (modifications not checked) [Sample No. 5830, fragment ligated inhibitor (4-(Propylamino) benzoic acid)]

IC50 [1]: 475 µM
Binder: STPNGL (modifications not checked) [Sample No. 5595, fragment ligated inhibitor]

IC50 [1]: 500 µM
Binder: STPNGL (modifications not checked) [Sample No. 5597, fragment ligated inhibitor]

IC50 [1]: 400 µM
Binder: STPNGL (modifications not checked) [Sample No. 5601, fragment ligated inhibitor]

— US20160011195A1
